Consider 19 substances from publication PMC12724217.

The target in experiment [1] is human chromosomal region maintenance 1 (CRM1) (UniProt O14980). The experiment in a line: two-hybrid.
For experiment [2] the target is unchanged. The experiment is described as follows: mammalian two-hybrid (CheckMate system) luciferase assay. Conditions: HEK-293 cells, 100 ng pG5luc reporter plasmid, 96 hours transfection, read off a plot; for percent of parent: parent: est. 100.

DHOV M I121A (natural protein) returned a reduction of the firefly luciferase signal relative to WT M in experiment [1] above 10%.
The same measure, in the same setting: to DHOV M I121S (natural protein) belongs above 10%.
For the substance DHOV M L122A (natural protein), the firefly luciferase signal as percent of WT M in experiment [1] was < 70 % of WT M.
On to DHOV M L122S (natural protein), for which, in experiment [1], the firefly luciferase signal as percent of WT M was < 70 % of WT M.
With “Dhori virus (DHOV) matrix protein (M) I121A; L122A”, in experiment [2] (parent: est. 5.2), the response (fold induction) came to 4.5. The percent of parent in experiment [2] was 86 % of WT M.
“Dhori virus (DHOV) matrix protein (M) I121S; L122S”: the response (fold induction) in experiment [2] (parent: est. 5.2) amounted to 4.7. Also, the percent of parent in experiment [2] was 90 % of WT M.
In the case of “Dhori virus (DHOV) matrix protein (M) I127A”, in experiment [2] (parent: est. 5.7), the response (fold induction) stood at 11.
As to “Dhori virus (DHOV) matrix protein (M) I127S”, in experiment [2] (parent: est. 5.7), the response (fold induction) amounted to 14.
Take “Dhori virus (DHOV) matrix protein (M) L116A”: the response (fold induction) in experiment [2] (parent: est. 5.7) amounted to 4.2. For the same substance, the percent of parent in experiment [2] is 74 % of WT M.
The matching figures for “Dhori virus (DHOV) matrix protein (M) L116S”: 5.3 and 92 % of WT M.
For “Dhori virus (DHOV) matrix protein (M) L120A”, in experiment [2] (parent: est. 5.7), the response (fold induction) was 7.6. Also, the percent of parent in experiment [2] is 130 % of WT M.
On to “Dhori virus (DHOV) matrix protein (M) L120S”, for which, in experiment [2] (parent: est. 5.7), the response (fold induction) is 7.7. For the same substance, the percent of parent in experiment [2] was 140 % of WT M.
The matching figures for “Dhori virus (DHOV) matrix protein (M) M119A”: 5.8 and 100 % of WT M.
On to “Dhori virus (DHOV) matrix protein (M) M119S”, for which the response (fold induction) in experiment [2] (parent: est. 5.7) stood at 7.3. The percent of parent in experiment [2] is 130 % of WT M.
For the substance “Dhori virus (DHOV) matrix protein (M) V115A”, the response (fold induction) in experiment [2] (parent: est. 5.7) was determined as 6. In experiment [2], the percent of parent is 110 % of WT M.
In the case of “Dhori virus (DHOV) matrix protein (M) V115A; L116A; M119A; L120A; I121A; L122A; I127A”, the response (fold induction) in experiment [2] (parent: est. 5.2) stood at 1.4. In experiment [2], the percent of parent was 27 % of WT M.
The matching figures for “Dhori virus (DHOV) matrix protein (M) V115G; L116G; M119G; L120G; I121G; L122G; I127G”: 1.4 and 27 % of WT M.
In the case of “Dhori virus (DHOV) matrix protein (M) V115R; L116R; M119R; L120R; I121R; L122R; I127R”, in experiment [2] (parent: est. 5.2), the response (fold induction) was 1.4. Moreover, the percent of parent in experiment [2] is 27 % of WT M.
On to “Dhori virus (DHOV) matrix protein (M) V115S”, for which the response (fold induction) in experiment [2] (parent: est. 5.7) was determined as 6.2. For the same substance, the percent of parent in experiment [2] was 110 % of WT M.
